From US20150119554A1
One block for each binder: values may come before it.

Assays:
[1] = biological target: antigen of scFv1 (Example 6); experiment: microarray of spotted films, 10 nM biotinylated antigen, Alexa-647-labeled streptavidin, spot intensity; reference scFv1 control
[2] = biological target: antigen of the ScFv (Example 1); experiment: spotted films, Alexa647-labelled pure antigen, fluorescence; reference ScFv alone

- fold increase of antigen recognition compared to the scFv1 control alone [1]: 25 times
B1: His6-scFv1-NTCT (scFv)
chain: MGSSGHHHHHHMEVQLLESGGGLVQPGGSLRLSCAASGFTFSSYEMNWVRQAPGKGLEWVSGISGSGGFTYYADSVKGRFTISRDNSKNTLYLQMNSLRAEDTAMYYCAREGYQDAFDIWGQGTLVTVSSGGGGSGGGGSGGGGSQSVLTQPPSASGTPGQRVTISCTGSSSNIGAGYDVHWYQQLPGTAPKLLIYSNNQRPSGVPDRFSGSKSGTSASLAISGLRSEDEADYYCAAWDDSLSGPPWVFGGGTKLTVLGEQKLISEEDLSGSAAAGNSSHTTPWTNPGLAENFMNSFMQGLSSMPGFTASQLDDMSTIAQSMVQSIQSLAAQGRTSPNKLQALNMAFASSMAEIAASEEGGGSLSTKTSSIASAMSNAFLQTTGVVNQPFINEITQLVSMFAQAGMNDVSAGNSGIQGYGQSSASASAAASAASTVANSVSRLSSPSAVSRVSSAVSSLVSNGQVNMAALPNIISNISSSVSASAPGASGCEVIVQALLEVITALVQIVSSSSVGYINPSAVNQITNVVANAMAQVMG

- fold more antigen bound compared to ScFv alone [2]: 10 times
B2: His6ScFvRep4CT (scFv)
chain: MGSSGHHHHHHMEVQLLESGGGLVQPGGSLRLSCAASGFTFSSYEMNWVRQAPGKGLEWVSGISGSGGFTYYADSVKGRFTISRDNSKNTLYLQMNSLRAEDTAMYYCAREGYQDAFDIWGQGTLVTVSSGGGGSGGGGSGGGGSQSVLTQPPSASGTPGQRVTISCTGSSSNIGAGYDVHWYQQLPGTAPKLLIYSNNQRPSGVPDRFSGSKSGTSASLAISGLRSEDEADYYCAAWDDSLSGPPCVFGGGTKLTVLGEQKLISEEDLSGSAAAGNSGQGGYGGLGQGGYGQGAGSSAAAAAAAAAAAAGGQGGQGQGGYGQGSGGSAAAAAAAAAAAAAAAGRGQGGYGQGSGGNAAAAAAAAAAAAAAAGQGGQGGYGRQSQGAGSAAAAAAAAAAAAAAGSGQGGYGGQGQGGYGQSSASASAAASAASTVANSVSRLSSPSAVSRVSSAVSSLVSNGQVNMAALPNIISNISSSVSASAPGASGCEVIVQALLEVITALVQIVSSSSVGYINPSAVNQITNVVANAMAQVMG

- fold more antigen bound compared to ScFv alone [2]: > 10 times
B3: His6Rep4CTScFv (scFv)
chain: MHHHHHHGQGGYGGLGQGGYGQGAGSSAAAAAAAAAAAAGGQGGQGQGGYGQGSGGSAAAAAAAAAAAAAAAGRGQGGYGQGSGGNAAAAAAAAAAAAAAAGQGGQGGYGRQSQGAGSAAAAAAAAAAAAAAGSGQGGYGGQGQGGYGQSSASASAAASAASTVANSVSRLSSPSAVSRVSSAVSSLVSNGQVNMAALPNIISNISSSVSASAPGASGCEVIVQALLEVITALVQIVSSSSVGYINPSAVNQITNVVANAMAQVMGGNSEVQLLESGGGLVQPGGSLRLSCAASGFTFSSYEMNWVRQAPGKGLEWVSGISGSGGFTYYADSVKGRFTISRDNSKNTLYLQMNSLRAEDTAMYYCAREGYQDAFDIWGQGTLVTVSSGGGGSGGGGSGGGGSQSVLTQPPSASGTPGQRVTISCTGSSSNIGAGYDVHWYQQLPGTAPKLLIYSNNQRPSGVPDRFSGSKSGTSASLAISGLRSEDEADYYCAAWDDSLSGPPCVFGGGTKLTVLGEQKLISEEDLSGSAAA
